{"source": "patent US20250155429A1", "key": {"[1]": {"target": "CD8", "assay": "same staining; plot CD8 against CD3, all events CD3-positive: upper left 0.00, lower left 0.00, lower right 71.27"}, "[2]": {"target": "CD8", "assay": "same staining; plot CD8 against CD4: upper right 0.30, lower left 11.12"}, "[3]": {"target": "CD45", "assay": "flow cytometry of PBMCs, co-staining in the BSA series, 10% BSA; left quadrants 0.00 and 0.01"}, "[4]": {"target": "CD45", "assay": "flow cytometry of PBMCs stained with four mouse IgG1 primaries, each pre-labelled with an anti-mouse IgG1 linker; plot CD3 against CD45: upper left 0.03, lower left 0.14"}, "[5]": {"target": "CD45", "assay": "flow cytometry of PBMCs, co-staining in the BSA series, 20% BSA; left quadrants 0.00 and 0.00"}, "[6]": {"target": "CD45", "assay": "flow cytometry of PBMCs, co-staining in the BSA series, 0% BSA; left quadrants 0.00 and 0.01"}, "[7]": {"target": "CD45", "assay": "flow cytometry of PBMCs stained at once with mouse IgG1 anti-CD45 (linker-488, FITC), mouse IgG2a anti-CD3 (linker-555, PE), mouse IgG2b anti-CD4 (linker-647, APC); left plot: Q5 0, Q8 0.21"}, "[8]": {"target": "CD3 (Homo sapiens (Human)) (UniProt P07766)", "assay": "flow cytometry of PBMCs, FSC-H against APC-A, No Quencher; Q4 100.0"}}}
{"substance": "CD8 (65144-1-Ig) (antibody)", "values": [{"measurement": "% of cells, upper right quadrant (CD3+/CD8+)", "setting": "[1]", "result": 28.7, "unit": "%"}, {"measurement": "% of cells, upper left quadrant (CD8-positive, CD4-negative)", "setting": "[2]", "result": 28.4, "unit": "%"}]}
{"substance": "CD45 (65109-1-Ig) (antibody)", "values": [{"measurement": "% of cells, lower right quadrant (CD45-positive, CD3-negative)", "setting": "[3]", "result": 46.1, "unit": "%"}, {"measurement": "% of cells, upper right quadrant (CD45-positive, CD3-positive)", "setting": "[3]", "result": 53.9, "unit": "%"}, {"measurement": "% of cells, lower right quadrant (CD45-positive, CD3-negative)", "setting": "[4]", "result": 28.5, "unit": "%"}, {"measurement": "% of cells, upper right quadrant (CD3+/CD45+)", "setting": "[4]", "result": 71.4, "unit": "%"}, {"measurement": "% of cells, lower right quadrant (CD45-positive, CD3-negative)", "setting": "[5]", "result": 45.7, "unit": "%"}, {"measurement": "% of cells, upper right quadrant (CD45-positive, CD3-positive)", "setting": "[5]", "result": 54.3, "unit": "%"}, {"measurement": "% of cells, lower right quadrant (CD45-positive, CD3-negative)", "setting": "[6]", "result": 47, "unit": "%"}, {"measurement": "% of cells, upper right quadrant (CD45-positive, CD3-positive)", "setting": "[6]", "result": 52.9, "unit": "%"}, {"measurement": "Q6 (% of cells, FITC-positive and PE-positive)", "setting": "[7]", "result": 55.4, "unit": "%"}, {"measurement": "Q7 (% of cells, FITC-positive and PE-negative)", "setting": "[7]", "result": 44.4, "unit": "%"}]}
{"substance": "mouse IgG1 isotype control (antibody)", "values": [{"measurement": "Q3 (% of cells, APC-positive)", "setting": "[8]", "result": 0.025, "unit": "%"}]}
